Experiment: soluble on expression in E. coli; label from the status in PepcDB or PDB records

Row | Sequence | soluble on expression in E. coli
1 | MDNNVEDKKEAMLKRLANRHEKRLLDQVKSNTKKIDLRATERAFLESSPTSMNMRTPLNPSISSSVSDSPILSYDEKANKQIIALATWCNTMMELDVSEEMDLGESKAEACRNIQKMLKKRSDTSEVENTQENARRRYQRIFEKNDPEVVKKKCKQLLDDSGMDASIKDLLSKNNVAIRKEHAVYNDIGLQTTLLHTFLSFHPAWLKTALEAIFNTRIDAQPKHLMKKLSQFFLDLVFSNPTMLKNKKFAQGSGKPIITEAGKEALHKHFLSVSMKLMFLIETAHTHRVIPNLTRIFTKSSHFNCLDDVFSELTKELLTGSSATFKKAFAKVGFIPTYRQSFIENYDYQAKGFSDFSDGLILAKLLETVGEMPHGQILLKLRDPAGDRIRKIGNVKIVLQEMSSLGVPTDNVNAESIVGGKKDEILSILWAIIGVRVAKEQRIKVTRVSEERTPKKRRSAVHDDMSSEVLKMCKIYGRQMEIEVMDLDSLSDGCLLAKLWTTFGTNSTPIQDYDGLSLWEKVVSVAELELCIQRGLDQNMALFVKMFLERLGMIQDLNEKATKIQRMWKAYVQRKNTPKLYFIVQQLLADSSIPRNRSVSPFSNNVTFTVPRTPRNNILTERPSLSQIPSSRQSMDSTFNDATFTVSRDSIESMNKMQKTPLRGTFTRKTIAMVIEEEDDSENNETVVPSTLKKRTVVRMEHNAEVFREQDEDDENQDKDTVAPSAENLDSPPSDIPLETLSSIPSASQSAIFLQDSETGKEMHVPKAEDVGVVVLEASDSPVALEGNNEASYDGQKIENLETFEIKEGKTQEDLPSKSPMDPTQTSGSPLVEFRMTEEQERLEMLFQSLSEDQKNFVKTNNLSVSIEDDANTPELRRILRQTRELKRKQQEIARKLGNIERNALAVRDGGEDSSDSRSDAGHDVAILHGDDSQLFENSMQLDQKSQLQNDETQILENKKKAAVVIQKMIRGFIARRKFQMEISNIRNRMIQYNHILAQEDEQIGIEEMEDKSVEAKLKKCALHGLTNDNLHVVHVAATVIDRVTDLVPSLLEKLVVELNGIKSITDVLIVADRGFSYTSILHPLLNVLEKLFTKIPEEVTNSHILPHLKILSPRLMLLMLKHSEVKELFIPIINTLTSIARRFPDKKQSSFSSSSYSIKQSLKKVKDQECRNKLVRLESICEDML | not soluble
2 | MDNRIPSALTTSVKSPKTPSGIPFLIRERDVIKAILEFLEIRGLHITQLSLEREAGVINGAFSDDLLFLRQLILDGQWDNALDFVEPLKPVNEFDFGAFRYNITKYKFFELLCVKLEPGPLHDNDFAVEELVECLKDLEHICPTPEDYRHLCALLTLPKLSDHEDFKNWNPSSARVECFNKVNQLCGHLLPPTGKEKDRGDDANSSNDRLTGLITKGRFYEGCVDYCQAQAIGDKRGIDAGPMPSEMLTFRPKLGSADLSLVCWLEMVGKEQFSMPFKQKQLELKVDHIRKPKLEAPWTETIMATPIKPGGQFPHNLVPSSKLKFAEKMSQSMTMSMLPPADLTTSMFPSVPRGHPMSQSTAAGFCLGTAITEADAMAQSLLIDEMMESSQLARTSRPDTLRGVGMMMTGDTIVPVQPAQVMINAPSQLSSQMMSMSMAPQVMAPIAPMAQNMINYDFAPVRRQLDEMARRSLPPSRLPTVPELGSPAVNSHHEENLMTQSRLFQQFSAAKQINEMVLPRGVGGVVGAAGAVGGAHVLPLQSQERLFQQRVAAAPGFQNGAQIPNQSMVPQGVPMSHQIRPQSIAGLPQAQPQVPQQLQRPVSAPTGMGVQFVPVCRYEDSQAIRATGFHPSGRYFALGTNSKQLHICLYPDTKRTQSRPMAYEQTKNAEIAVTRPKQHRGSVYCLSFNPNGDLLATGSNDKTIRLMAFNEDSCRIGAEMELTCHDGTVRDLIFIESSINRSTILVSGGAGNCHLNVTDCNTGQLIQSMKGHTAPILGLYTWSQAGNQFVSCSQDKTIRFWDLRQQTAVNVISPGSNKSHNASPVTSVCVDPNGKLLVSGHEDASVALFDIGGNRILQTFRPHGDEVRTVRFSNAAYYLLTASYDKRVVISDMRGDLMAPLMYLPVAEHSDKVVQCRWHPHDFSFLSTSADRSAVLWSLPNR | not soluble
3 | MDPGPWNECVPVRMPDDPQIHMVSNTRQAVELLTKRWPVSHGQAYQAAIDICMAVLERESPAYVARVAFVAAAKEAQVNIVS | not soluble
4 | MDQLFYNGPPDYVEIEDRAITTEPGASIQAAPGAIWMEALPAIEGIPAGLEYLAYLDTVMVHQVKEVLEILTGWESKNKYAIRNKNGQQCYYAFEESNAWERQCCGSQRGFTMHIVDNFNKNVLIVKRELRCCADSFCGCLLGLQNICTIESLSTGLLGTVLQGYGCTNSFYNILDKDGNLIFLVDGQGCCTSCCCEDKDFTIKTPDSSVPIGSITKKWGGLLREAFTDADTFAVTFPIDLDVKLKAILLGATFLIDFVEFENNN | not soluble
5 | MDQVVVFQKMFEQVRKEQNFSWFYSELKHHRIAHYIYYLATDNIRIITHDDTVLLLRGTRNLLKVSTTKNPAKIKEAALLHICGKSTFREYCSTLAGAGVFRWVTDVNHNKRSYYAIDNTLLYIEDVENNKPLILEHHHHHH | soluble
6 | MDRRSQILTIAGHLFSQRGYHATSMRELARHLNLQGGSLYAHIQSKEELLLEVVRQAAERFQKVLEELPSGDPVTRMKALVKGHLRVIAEELPRATVFFHEWKHLSPPLLEEAKALRRRYEEGVQAVVEEGVRAGVFRVENVRLATLFVLSALNWTYQWYRPDGPLSLEALAEAYAELVLKALGVAASPEGERREEGGEDGEA | soluble
7 | MDRTLYQKQMLDLVKDSKLATKLENSIFKWTNDYMETNITPPFMFENFYQDKFSDIIKHLNIKNNPYLLEAIKTGKIKPENIAFLKPEEIYPEKFEAILNKRKLEKAIKDNQATTDAFKCPRCKKRKAKIDQKQIRAGDEPMTTFVTCVECGNVQKF | not soluble
8 | MDRTTGKPLVGIEHLRQSIIDILSTRIGTRVMRRDYGSRIAELIDAPVNSSFSIALYAAVAEALDKWEPRFKLKKIDFKMLGTGQVSLSFEGMYLPSGKPITMEGLLIQ | not soluble
9 | MDRVIAAQVYLRICELGSLSAAARALGMSRPMVSRYLEQMESWAGARLIHRSTRRLTLTPAGEKVLLKTRGLTRIADEIAGERQRADPSGTLRVACAHFTAMQLISPLLPDFLARYPLLRLELDINNHPVSLIGERIDVAIRITDNPEAGAIARRLGVCRSLLCAAPGWMRQHGPLTTPDDLQRHNCLLYSHFASQHWQFSDAQGREASVAVNGNLSAGISSLLLEAAVAGCGIAMLPELEARGAIASGTLEVVLPEWTPKALSVYGIYLSRDYQPDGLPLFLDALQRRLGEETGHG | not soluble
10 | MDRVLSRADKERLLELLKLPRQLWGDFGRMQQAYKQQSLLLHPDKGGSHALMQELNSLWGTFKTEVYNLRMNLGGTGFQ | soluble
11 | MDSGVEASGYPPVGRAKILLERAVNPIPSPRRELEQYTTPADIAVRIAVDALLRGLLEGALAADLAAGTCRLGLALLLYGASRVAAVEADGRLAGLCLGAAEKLGLGGRIFFVASRVSRRRGPLAAGSVDLVATNPPFGVWRRGADWEVLEYALRLKPRAVYAIVKSGNMGFHAAKAAGLGYSTLLISREHFPIPASMPGHRSRVRRVSVDVVLFTRGG | soluble
12 | MDSLMRVFSHRSPPPSFGFACDVGAHPSSTAQNLPMTYGSVREMIDDFSIVFGVPKYRTSKPKKVTRKFSFTRLLQPIDNLVTCPACSNIHPSDTICDACYAKVHQLTSEIKKKMMQYNPYVGEKQDKEVYVKFRGEPDAPAAVVKGKRVLEIEKERPTWFKKLTLKE | not soluble
13 | MDSRSLSVHDGAMQTLTVPDSGLAPLLPGQRLARGVCRHLRSHDFVSVVELVPAPGLRVDVMALGPKGEIWVVECKSSRADYQSDRKWQGYLDWCDRFFFAVDEAFPVDLLPEGTGLMLADGYDAEILRIGPEGRLAPARRKAVIQGFARHAALRLQGLRDPGAFPG | not soluble
14 | MDSSEVVKVKQASIPAPGSILSQPNTEQSPAIVLPFQFEATTFGTAETAAQVSLQTADPITKLTAPYRHAQIVECKAILTPTDLAVSNPLTVYLAWVPANSPATPTQILRVYGGQSFVLGGAISAAKTIEVPLNLDSVNRMLKDSVTYTDTPKLLAYSRAPTNPSKIPTASIQISGRIRLSKPMLIAN | soluble
15 | MDTALYLLPVTLGDTPIESVLPSYNKEIIQGIKHFIVEDVRSARRFLKKVDREIDIDSLTFYPLNKHTSPEDISGYLKPLAGGLSMGVISEAGCPAVADPGADVVAIAQRKNLKVVPLVGPSSIILSVMGSGFSGQSFAFHGYLPIEPGERAKKIKALEQRVYAEHQTQLFIETPYRNNKMVEDILHNCRPQTRLCIAANITCEGEYIRTKTIKEWQGKVPDLTKIPCIFLLYQLEHHHHHH | not soluble
16 | MDTLGLVESRSIAAGVNLADGMVKVAQVELVRAGTICSGRYFICLGGDRQAVQTAVSHAEQSGSALAGSYVISGVSPQVLAVLKKSVQPGTPGALGVVECRTVSAGIAAADAAVKRSGISLLRLVTGQGINGKSYFVFSGDVASVQEAADAAKTALGRHLIESVVIARPDASVVRALTSGVR | not soluble
17 | MDTMGRHVISELWGCDFDKLNDIDFIEKTFVDAALKSGAEIREVAFHKFAPQGVSGVVIISESHLTIHTFPEHGYASIDVYTCGHLDPTIAADYIAEMLGAQTRETIELPRGMRPIEVKKAQAL | soluble
18 | MDTPENVLQMLEAHMQSYKGNDPLGEWERYIQWVEENFPENKEYLITLLEHLMKEFLDKKKYHNDPRFISYCLKFAEYNSDLHQFFEFLYNHGIGTLSSPLYIAWAGHLEAQGELQHASAVLQRGIQNQAEPREFLQQQYRLFQTRLTETHLPAQARTSEPLHNVQVLNQMITSKSNPGNNMACISKNQGSELSGVISSACDKESNMERRVITISKSEYSVHSSLASKVDVEQVVMYCKEKLIRGESEFSFEELRAQKYNQRRKHEQWVNEDRHYMKRKEANAFEEQLLKQKMDELHKKLHQVVETSHEDLPASQERSEVNPARMGPSVGSQQELRAPCLPVTYQQTPVNMEKNPREAPPVVPPLANAISAALVSPATSQSIAPPVPLKAQTVTDSMFAVASKDAGCVNKSTHEFKPQSGAEIKEGCETHKVANTSSFHTTPNTSLGMVQATPSKVQPSPTVHTKEALGFIMNMFQAPTLPDISDDKDEWQSLDQNEDAFEAQFQKNVRSSGAWGVNKIISSLSSAFHVFEDGNKENYGLPQPKNKPTGARTFGERSVSRLPSKPKEEVPHAEEFLDDSTVWGIRCNKTLAPSPKSPGDFTSAAQLASTPFHKLPVESVHILEDKENVVAKQCTQATLDSCEENMVVPSRDGKFSPIQEKSPKQALSSHMYSASLLRLSQPAAGGVLTCEAELGVEACRLTDTDAAIAEDPPDAIAGLQAEWMQMSSLGTVDAPNFIVGNPWDDKLIFKLLSGLSKPVSSYPNTFEWQCKLPAIKPKTEFQLGSKLVYVHHLLGEGAFAQVYEATQGDLNDAKNKQKFVLKVQKPANPWEFYIGTQLMERLKPSMQHMFMKFYSAHLFQNGSVLVGELYSYGTLLNAINLYKNTPEKVMPQGLVISFAMRMLYMIEQVHDCEIIHGDIKPDNFILGNGFLEQDDEDDLSAGLALIDLGQSIDMKLFPKGTIFTAKCETSGFQCVEMLSNKPWNYQIDYFGVAATVYCMLFGTYMKVKNEGGECKPEGLFRRLPHLDMWNEFFHVMLNIPDCHHLPSLDLLRQKLKKVFQQHYTNKIRALRNRLIVLLLECKRSRK | soluble
19 | MDTSTNLDIGAQLIVEECPSTYSLTGMPDIKIEHPLDPNSEEGSAQGVAMGMKFILPNRFDMNVCSRFVKSLNEEDSKNIQDQVNSDLEVASVLFKAECNIHTSPSPGIQVRHVYTPSTTKHFSPIKQSTTLTNKHRGNEVSTTPLLANSLSVHQLAAQGEMLYLATRIEQENVINHTDEEGFTPLMWAAAHGQIAVVEFLLQNGADPQLLGKGRESALSLACSKGYTDIVKMLLDCGVDVNEYDWNGGTPLLYAVHGNHVKCVKMLLESGADPTIETDSGYNSMDLAVALGYRSVQQVIESHLLKLLQNIKE | soluble

Source: the DeepSol protein solubility set
